From patent publication US20220306758A1

B1: mAb16732 (REGN4514) (antibody, V domains shown)
VH: EVQLVESGGGLVQPGRSLRLSCAASGFTFDDYAMHWVRQAPGKGLEWVSGISWNSGNMGYADSVKGRFTISRDNAKNSLFLQMHSLRAEDTAFYYCAKVRLTAFDFWGQGTLVTVSS
VL: DIQMTQSPSSLSASVGDRVTITCRTSQSIGNYLNWFQQKPGKAPKLLIYTASSLQNGVPSRFTGSGSGTDFTLTISSLQPEDFVIYYCQQSFSTPYTFGQGTKLEIK
B2: mAb16747 (REGN4515) (antibody, V domains shown)
VH: QVQLVESGGGLVKPGGSLRLSCAASGFTFSDYYISWIRQAPGKGLEWVSYISSSGSSIKYADSVKGRFTISRDNAKNSLYLQMNSLRAEDTAVYYCAREGGNYGMDVWGQGTTVTVSS
VL: DIQMTQSPSSVSASVGDRVTITCRASQGINNWLVWYQQKPGKAPKLLIYAATSLQSGVPSRFSGSGSGTDFTLTISSLQPEDFATYYCQQANSFPPTFGQGTKLEIK

Biological target: monkey BCMA-MMH (monkey BCMA with C-terminal myc-myc-hexahistidine tag) (monkey)
Sequence (chain, as listed by the source limits assumed): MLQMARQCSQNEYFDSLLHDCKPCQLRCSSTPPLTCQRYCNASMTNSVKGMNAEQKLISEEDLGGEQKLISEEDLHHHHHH
Experiment: SPR, Biacore, mAb captured by anti-hFc, 25 C

| Binder | 90 nM mfBCMA.mmh Bind (RU) |
| --- | --- |
| B1 | 1.1 |
| B2 | 1.9 |
